Patent US20020155503

Columns and labels:
[1] = system: Asp-Glu-Glu-Asp-Tyr
[2] = system: Asp-Glu-Glu-Tyr-Asp
[3] = system: Asp-Glu-Tyr-Glu-Asp
[4] = system: Asp-Tyr-Glu-Glu-Val
[5] = system: Tyr-Ser-Ile-Ile-Nle

recombinant form of the human Syk enzyme
phosphorylation of library peptide, anti-phosphotyrosine ELISA (absorbance at 450 nm); preferred substrate of the sub-set [1]: Library Sub-Set 1 Asp-Glu-Glu-Asp-Tyr [SEQ ID No. 11]
phosphorylation of library peptide, anti-phosphotyrosine ELISA (absorbance at 450 nm); preferred substrate of the sub-set [2]: Library Sub-Set 2 Asp-Glu-Glu-Tyr-Asp [SEQ ID No. 12]
phosphorylation of library peptide, anti-phosphotyrosine ELISA (absorbance at 450 nm); preferred substrate of the sub-set [3]: Library Sub-Set 3Asp-Glu-Tyr-Glu-Asp [SEQ ID No. 13]
phosphorylation of library peptide, anti-phosphotyrosine ELISA (absorbance at 450 nm); preferred substrate of the sub-set [4]: Library Sub-Set 4 Asp-Tyr-Glu-Glu-Val [SEQ ID No. 14]
phosphorylation of library peptide, anti-phosphotyrosine ELISA (absorbance at 450 nm); preferred substrate of the sub-set [5]: Library Sub-Set 5 Tyr-Ser-Ile-Ile-Nle [SEQ ID No. 15]
